Results taken from patent US20250019444A1 (published 2025).

Target: T1, ULBP6 (NKG2D natural ligand) (Homo sapiens (Human), UniProt Q5VY80 26-218)
T1 sequence: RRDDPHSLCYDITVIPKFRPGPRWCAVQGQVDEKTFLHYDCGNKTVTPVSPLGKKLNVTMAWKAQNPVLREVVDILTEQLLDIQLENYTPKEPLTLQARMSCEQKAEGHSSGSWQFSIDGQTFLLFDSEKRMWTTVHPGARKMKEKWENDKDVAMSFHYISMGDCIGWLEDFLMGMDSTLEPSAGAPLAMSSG
Test: SPR, injection over captured mouse Fc-human NKG2D, 25 C
Excerpt: Briefly, mouse Fc-human NKG2D was captured using an anti-mouse Fc antibody immobilized on a CM5 chip at a density of approximately 100 RU. […] Biacore 8K evaluation software was used for all data analysis.

binding result: binds
B1: soluble mouse Fc-human NKG2D dimer (Fc fusion, UniProt P26718 73-216, looked up)
chain: IWSAVFLNSLFNQEVQIPLTESYCGPCPKNWICYKNNCYQFFDESKNWYESQASCMSQNASLLKVYSKEDQDLLKLVKSYHWMGLVHIPTNGSWQWEDGSILSPNLLTIIEMQKGDCALYASSFKGYIENCSTPNTYICMQRTV
notes: also called mFc-hNKG2D; fusion protein of human NKG2D and murine Fc; not shown: murine Fc
